# Experimental data as given in US20130273026A1, “COMPOSITION AND METHOD FOR MODULATING INFLAMMATORY MOLECULES WITH AMYLASE” (INTEGRATIVE ENZYMATICS, INC., priority 2012, published 2013).
# Structures can show the parent of a compound that is named as a salt.
# B1: Test Compound 1: human alpha-Amylase enzyme (SEQ ID NO 1, pancreatic Amylase alpha 2A), purchased from Abcam (product ID: ab77861) (protein)
# chain: QYSPNTQQGRTSIVHLFEWRWVDIALECERYLAPKGFGGVQVSPPNENVAIYNPFRPWWERYQPVSYKLCTRSGNEDEFRNMVTRCNNVGVRIYVDAVINHMCGNAVSAGTSSTCGSYFNPGSRDFPAVPYSGWDFNDGKCKTGSGDIENYNDATQVRDCRLTGLLDLALEKDYVRSKIAEYMNHLIDIGVAGFRLDASKHMWPGDIKAILDKLHNLNSNWFPAGSKPFIYQEVIDLGGEPIKSSDYFGNGRVTEFKYGAKLGTVIRKWNGEKMSYLKNWGEGWGFVPSDRALVFVDNHDNQRGHGAGGASILTFWDARLYKMAVGFMLAHPYGFTRVMSSYRWPRQFQNGNDVNDWVGPPNNNGVIKEVTINPDTTCGNDWVCEHRWRQIRNMVIFRNVVDGQPFTNWYDNGSNQVAFGRGNRGFIVFNNDDWSFSLTLQTGLPAGTYCDVISGDKINGNCTGIKIYVSDDGKAHFSISNSAEDPFIAIHAESKL
# modifications: homo sapien
# Columns and labels:
# BKS.Cg-Dock7m mice [1] = assay: Body weight loss in diabetic obese mice; type: in vivo
# Procedure: (§1) BKS.Cg-Dock7m mice were treated with control and an Amylase compound according to an embodiment of the present invention. In the absence of treatment, the BKS.Cg-Dock7m mice are homozygous for the diabetes spontaneous mutation (Lepr^db) and become obese at approximately three to four weeks of age. […] At the beginning of the animal trial, the test animals were obese, severely hyperinsulemic and hyperglycemic. After 28 consecutive days of dosing, the animals were euthanized and tissue analyzed. Compounds described herein were tested against the positive control of Metformin hydrochloride (“Metformin”)
# (§2) Animals were manually restrained and administered Metformin by oral gavage using a disposable gavage needle. The target dose was 5 mL/kg, and actual dose volumes ranged from 190 to 260 μL/animal.
# (§3) Amylase was purchased from Abcam (product ID: ab77861) at a dilution of 340 Units/mL. Each animal was treated with Amylase to achieve a dilution of 80 Units/L of blood. The test compound was diluted in phosphate buffer saline (PBS) and each day the test animals were injected with 300 uL of the Amylase-PBS solution. For every 299.4 uL of PBS, 0.6 uL of Amylase was used to achieve a concentration of 80 Units/Liter assuming a body weight of 45 g. The aliquots were stored at −80 C.
# Amylase was purchased from Abcam (product ID: ab77861) at a dilution of 340 Units/mL. Each animal was treated with Amylase to achieve a dilution of 240 Units/L of blood. The test compound was diluted in phosphate buffer saline (PBS) and each day the test animals were injected with 300 uL of the Amylase-PBS solution. For every 298.3 uL of PBS, 1.7 uL of Amylase was used to achieve a concentration of […] assuming a body weight of 45 g. The aliquots were stored at −80 degrees C.
# (§4) 1× (used synonymously with TV1) and 3× (used synonymously with TV2) doses of human alpha-Amylase enzyme (referred to herein as Test Compound 1) were determined to be 80 Units/Liter of blood volume and 240 Units/Liter of blood volume respectively. Animals were manually restrained and administered a target volume of 300 μL of phosphate buffered saline (PBS) (vehicle), by IP injection, once per day, on Days 1-28. Actual dose volumes changed throughout the study and ranged from 300 to 310 μL. Endpoints include daily clinical observations and body weights. Creatinine, insulin, Protein Urea/Creatinine levels, clinical pathology and gross pathology at necropsy were also obtained. The mice were euthanized and necropsied on Day 28.
# Body weights were measured prior to the study for randomization. Additional weekly body weights were collected throughout the study. We also were interested in weight loss for the animals for various treatment regimens. Referring now to Table 1 weight loss data as a percent weight loss with the reference being the weight before any treatment is illustrated for each test group. […] As with the insulin data, there is a dose dependent trend between 1× and 3×. The higher dose of Test Compound 1 outperforms metformin.
# BKS.Cg-Dock7m mice [2] = assay: Serum insulin ELISA in diabetic obese mice after 28 days of dosing; type: in vivo; conditions: for Serum insulin levels compared to vehicle control: at necropsy after 28 consecutive days, Test Compound 1 at 1× or 3× IP, Metformin oral gavage
# Procedure: as §1, §2, §3
# Amylase was purchased from Abcam (product ID: ab77861) at a dilution of 340 Units/mL. Each animal was treated with Amylase to achieve a dilution of 240 Units/L of blood. […]
# 1× (used synonymously with TV1) and 3× (used synonymously with TV2) doses of human alpha-Amylase enzyme (referred to herein as Test Compound 1) were determined to be 80 Units/Liter of blood volume and 240 Units/Liter of blood volume respectively. […]
# Referring now to FIG. 9, insulin values were measured in serum from four animals from each treatment group at the time of necropsy following 28 consecutive days of dosing with Control (metformin), Test Compound 1 (SEQ ID NO 1), or vehicle alone. […] The processed plates were read using a Molecular Devices VersaMax plate reader.
# BKS.Cg-Dock7m mice [3] = assay: Urine Protein Urea/Creatinine ratio; type: in vivo; conditions: for Nephroprotective effect: from Protein Urea to Creatinine ratio
# Procedure: as §1, §4
# Referring now to FIG. 11, Protein Urea/Creatinine Levels are measured and shown. Creatinine levels are directly related to muscle mass in mice and so higher Creatinine is correlated with higher muscle mass. A healthy Protein Urea to Creatinine level is 1. Higher levels imply kidney damage. […] Optimal Protein Urea: Creatinine is 1.
# IgE = assay: Co-immunoprecipitation of Amylase and IgE; type: binding
# Procedure: Referring now to FIG. 3, an immunoblot is shown having samples in lanes 1-8. The samples are prepared as follows. 10 μg of Amylase was mixed with 1 μg of IgE and incubated overnight at 4° C. and then for one hour at 37° C. Anti-Amylase antibody was used for immunoprecipitation. Anti-IgE antibody was used for immunoblotting. BSA was used as a competitive binding control. A sample with no IgE and […] of BSA+10 microgram of Amylase (lane 2) was used as negative control for immunoblotting. (Lanes 3 and 4 represent 0.5 μg BSA, lanes 5 and 6 represent 0.5 μg BSA and lanes 7 and 8 represent 0.05 μg BSA). After immunoprecipitation, pellets were dissolved in 45 microliters of Laemmli sample buffer and 15 microliters were loaded on the gel. 1 microgram of IgE was used as positive control (lane 1).
# Referring now to FIG. 2, an immunoblot is shown having samples in lanes 1-8. The samples are prepared as follows.
# Mast cells = assay: Histamine ELISA of IgE/anti-IgE-induced mast cell degranulation; type: cell-based; conditions: for Histamine release (ELISA): 1× (100 Units/L) and 10× (1000 Units/L) Amylase, IgE + anti-IgE
# Procedure: Referring now to FIG. 1, Mast cells were treated with IgE, anti-IgE and varying doses of alpha-Amylase in a medium that would permit binding. In this experiment, Mast cells were grown to confluence, harvested and resuspended in 8 ml PBS and a 3 ml aliquot was plated in triplicate. 0.29 ml (100 Units) of Amylase was added to 0.7 mL PBS bringing the total volume to 1 mL. 3 μL was used in the 1× Amylase dose and 30 μL was used in the 10× Amylase dose. 1 set of triplicates was incubated with 1× Amylase (100 Units/L) and the second set with 10× Amylase (1000 Units/L). After 10 minutes, 250 μL of IgE was added, and then 200 μL of anti-IgE. The cells were incubated at 37 degrees Celsius during this time. 50 μL was taken at 1 hour, 2.5 hours and 4 hours and subjected to histamine level analysis via ELISA. A control set was co-incubated with PBS.
# Anti-IgE when added to IgE-incubated Mast cells causes degranulation. Histamine release occurs during degranulation. Measurements were taken from all three subsets at 1 hour, 2.5 hours and 4 hours and subjected to analysis of histamine levels by ELISA from Oxford Biolabs. FIG. 1 is a graph of the results of an ELISA in which histamine levels are measured. Higher absorbance rates correlate to lower levels of Histamine.
# Degranulation based upon the Immunoglobulin-E (IgE)-Anti-IgE reaction is well documented in the literature. Histamine levels were detected by an ELISA kit and served as a marker for degranulation. […] This implies that cellular degranulation was prevented in a time and dose-dependent manner by the addition of Amylase.
# BKS.Cg-Dock7m mice [4] = assay: Urine creatinine vs percentage of total weight loss; type: in vivo; conditions: 1× dose
# Procedure: as §1
# as §4, with “Creatinine, insulin, Protein Urea/Creatinine levels, clinical pathology and gross pathology at necropsy were also obtained. The mice were euthanized and necropsied on Day 28.” left out
# The source of the weight loss, (whether fat or muscle) is physiologically critical. […] Referring now to FIG. 10, to quantify the source of the weight loss, we examined urine creatinine levels in the test animals. […]
# [5] = Metformin positive control, oral gavage
# [6] = 1X dose (80 Units/Liter of blood volume) IP daily
# [7] = 3X dose (240 Units/Liter of blood volume) IP daily
molecule,measurement,setting,value
"CN(C)C(=N)N=C(N)N [Metformin, Metformin hydrochloride, reference compound]","Body Weight % Lost, % Weight loss n = 4",BKS.Cg-Dock7m mice [1]; [5],7%
same,"Body Weight % Lost, % Weight loss n = 6",BKS.Cg-Dock7m mice [1]; [5],6.9%
same,"Body Weight % Lost, % Weight loss raw",BKS.Cg-Dock7m mice [1]; [5],7.4%
same,Serum insulin levels compared to vehicle control,BKS.Cg-Dock7m mice [2],moderate decreases in serum insulin levels compared to vehicle control animals
same,Nephroprotective effect,BKS.Cg-Dock7m mice [3],nephroprotective
B1,"Body Weight % Lost, % Weight loss n = 4",BKS.Cg-Dock7m mice [1]; [6],5%
same,"Body Weight % Lost, % Weight loss n = 6",BKS.Cg-Dock7m mice [1]; [6],5.2%
same,"Body Weight % Lost, % Weight loss raw",BKS.Cg-Dock7m mice [1]; [6],5.5%
same,Weight loss compared with metformin,BKS.Cg-Dock7m mice [1]; 1× and 3× doses,dose-dependency in weight loss with our 1× of Test Compound 1 and 3× of Test Compound 1 doses outperforming metformin
same,"Body Weight % Lost, % Weight loss n = 4",BKS.Cg-Dock7m mice [1]; [7],10%
same,"Body Weight % Lost, % Weight loss n = 6",BKS.Cg-Dock7m mice [1]; [7],8.3%
same,"Body Weight % Lost, % Weight loss raw",BKS.Cg-Dock7m mice [1]; [7],7.4%
same,Change in insulin levels,"BKS.Cg-Dock7m mice [2]; Treatment Group 3: 3× dose (240 Units/liter of blood volume) IP, 28 days",did exhibit a change in insulin levels
same,Serum insulin levels compared to vehicle control,BKS.Cg-Dock7m mice [2],moderate decreases in serum insulin levels compared to vehicle control animals
same,Nephroprotective effect,BKS.Cg-Dock7m mice [3],nephroprotective
same,Protein Urea to Creatinine ratio in urine,BKS.Cg-Dock7m mice [3]; treatment group 2 (1× dose) vs group 4 (metformin) and group 1 (vehicle),lower Protein Urea to Creatinine ratio compared to urine from animals in treatment group 4 or animals in treatment group 1
same,Amylase co-immunoprecipitation with IgE,"IgE; 1 μg IgE + 0.5, 5, 10 μg Amylase, anti-IgE immunoprecipitation, anti-Amylase immunoblot",binding of Amylase and IgE was observed to behave in a dose-dependent manner
same,IgE co-immunoprecipitation with Amylase,"IgE; 10 μg Amylase + 1 μg IgE, anti-Amylase immunoprecipitation, anti-IgE immunoblot, BSA as competitive binding control","IgE immunoprecipitated with Amylase under conditions of increasing concentrations of BSA, demonstrating little non-specific binding"
same,Histamine release (ELISA),"Mast cells; 1 hour, vs PBS control","the levels of Histamine released in the 1× and 10× doses were the same, with higher release in the negative control"
same,Histamine release (ELISA),Mast cells; 2.5 hours,dose dependency with less histamine release compared to 1 hour
same,Histamine release (ELISA),Mast cells; 4 hours,greater histamine release in the 1× and 10× doses
same,Histamine levels as marker for degranulation,"Mast cells; overall, samples treated with Amylase, 1 to 4 hours, 1× and 10×",lower in a manner that was both time and dose dependent
same,Source of the weight loss (fat or muscle) from urine creatinine,BKS.Cg-Dock7m mice [4],the majority of weight lost is fat content and muscle mass is preserved
